Data taken from patent publication US20220073608A1.

Tests used:
[1] = molecular target: monkey SEMA4D, full length, on CHO-K1 cells (CHO-K1 cSEMA4D) (monkey); test: FACS, CHO-K1 cSEMA4D cells; Ab 0.534 nM
[2] = molecular target: hSEMA4D ECD-His (His-tagged human SEMA4D protein extracellular domain, Met22-Arg734) (human) (UniProt Q92854); test: ELISA, coated hSEMA4D ECD-His; Ab 0.533 nM
[3] = molecular target: monkey SEMA4D, full length, on CHO-K1 cells (CHO-K1 cSEMA4D) (monkey); test: FACS, CHO-K1 cSEMA4D cells; Ab 13.3 nM
[4] = molecular target: T1, human SEMA4D, full length, on CHO-K1 cells (CHO-K1 hSEMA4D) (human) (UniProt Q92854); test: FACS, CHO-K1 hSEMA4D cells; Ab 2.67 nM
T1 sequence (looked up): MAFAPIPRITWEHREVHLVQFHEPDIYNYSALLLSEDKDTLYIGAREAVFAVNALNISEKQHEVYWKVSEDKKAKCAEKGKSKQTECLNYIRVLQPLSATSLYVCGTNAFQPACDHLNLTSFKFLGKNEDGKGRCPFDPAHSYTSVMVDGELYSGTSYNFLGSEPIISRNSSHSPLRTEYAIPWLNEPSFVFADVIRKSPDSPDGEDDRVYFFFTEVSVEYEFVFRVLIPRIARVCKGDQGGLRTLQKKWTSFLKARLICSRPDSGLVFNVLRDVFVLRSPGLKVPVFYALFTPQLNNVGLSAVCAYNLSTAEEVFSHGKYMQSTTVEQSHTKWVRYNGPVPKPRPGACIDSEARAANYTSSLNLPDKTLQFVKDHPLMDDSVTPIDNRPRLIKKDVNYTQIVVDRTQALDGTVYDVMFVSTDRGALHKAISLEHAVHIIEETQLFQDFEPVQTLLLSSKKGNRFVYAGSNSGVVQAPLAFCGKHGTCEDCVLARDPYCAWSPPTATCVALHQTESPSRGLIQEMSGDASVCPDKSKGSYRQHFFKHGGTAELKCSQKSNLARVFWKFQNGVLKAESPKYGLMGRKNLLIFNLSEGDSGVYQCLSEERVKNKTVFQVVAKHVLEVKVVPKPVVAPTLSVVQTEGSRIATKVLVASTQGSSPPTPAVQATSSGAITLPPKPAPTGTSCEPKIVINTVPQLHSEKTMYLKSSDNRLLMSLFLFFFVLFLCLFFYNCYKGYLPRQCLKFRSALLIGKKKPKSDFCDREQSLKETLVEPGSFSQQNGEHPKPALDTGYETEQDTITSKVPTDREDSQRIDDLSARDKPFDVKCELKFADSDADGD

[5] = molecular target: monkey SEMA4D, full length, on CHO-K1 cells (CHO-K1 cSEMA4D) (monkey); test: FACS, CHO-K1 cSEMA4D cells; Ab 0.000853 nM
[6] = molecular target: monkey SEMA4D, full length, on CHO-K1 cells (CHO-K1 cSEMA4D) (monkey); test: FACS, CHO-K1 cSEMA4D cells; Ab 0.0213 nM
[7] = molecular target: T2, biotinylated hSEMA4D ECD-His (human) (UniProt Q92854); test: FACS, blocking of biotinylated hSEMA4D ECD-His binding to 293F hPlexin B1 cells; Ab 0.0213 nM
T2 sequence (chain, biotinylated with Biotin-X-X-NHS at a molar ratio of 8,1; sites not stated): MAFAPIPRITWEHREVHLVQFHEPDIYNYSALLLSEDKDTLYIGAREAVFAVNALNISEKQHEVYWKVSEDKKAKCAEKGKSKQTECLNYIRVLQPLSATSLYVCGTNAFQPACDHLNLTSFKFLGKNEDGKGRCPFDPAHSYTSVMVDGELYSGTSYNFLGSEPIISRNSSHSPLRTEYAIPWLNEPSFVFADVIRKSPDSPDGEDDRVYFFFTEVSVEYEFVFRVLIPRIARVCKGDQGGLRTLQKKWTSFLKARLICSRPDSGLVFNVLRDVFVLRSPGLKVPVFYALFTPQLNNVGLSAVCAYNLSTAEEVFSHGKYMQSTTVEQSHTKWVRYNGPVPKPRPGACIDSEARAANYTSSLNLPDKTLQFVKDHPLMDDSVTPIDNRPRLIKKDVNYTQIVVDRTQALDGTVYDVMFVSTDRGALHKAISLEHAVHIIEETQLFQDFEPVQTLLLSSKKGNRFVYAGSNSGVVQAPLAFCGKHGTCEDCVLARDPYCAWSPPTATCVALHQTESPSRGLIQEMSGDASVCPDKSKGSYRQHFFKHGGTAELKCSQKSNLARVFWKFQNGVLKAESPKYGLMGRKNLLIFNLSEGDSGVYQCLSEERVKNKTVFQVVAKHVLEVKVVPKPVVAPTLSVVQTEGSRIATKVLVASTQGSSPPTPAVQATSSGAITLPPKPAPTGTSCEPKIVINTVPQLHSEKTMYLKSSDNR

[8] = molecular target: T1, human SEMA4D, full length, on CHO-K1 cells (CHO-K1 hSEMA4D) (human); test: FACS, CHO-K1 hSEMA4D cells; Ab 13.3 nM
[9] = molecular target: mouse SEMA4D, full length, on CHO-K1 cells (CHO-K1 mSEMA4D) (mouse) (UniProt O09126); test: FACS, CHO-K1 mSEMA4D cells; Ab 0.107 nM
[10] = molecular target: mouse SEMA4D, full length, on CHO-K1 cells (CHO-K1 mSEMA4D) (mouse) (UniProt O09126); test: FACS, CHO-K1 mSEMA4D cells; Ab 0.534 nM
[11] = molecular target: T1, human SEMA4D, full length, on CHO-K1 cells (CHO-K1 hSEMA4D) (human); test: FACS, CHO-K1 hSEMA4D cells; Ab 0.0213 nM
[12] = molecular target: mouse SEMA4D, full length, on CHO-K1 cells (CHO-K1 mSEMA4D) (mouse) (UniProt O09126); test: FACS, CHO-K1 mSEMA4D cells; Ab 0.00427 nM
[13] = molecular target: mouse SEMA4D, full length, on CHO-K1 cells (CHO-K1 mSEMA4D) (mouse) (UniProt O09126); test: FACS, CHO-K1 mSEMA4D cells; Ab 0.0213 nM
[14] = molecular target: T1, human SEMA4D, full length, on CHO-K1 cells (CHO-K1 hSEMA4D) (human); test: FACS, CHO-K1 hSEMA4D cells; Ab 0.00427 nM
[15] = molecular target: T2, biotinylated hSEMA4D ECD-His (human); test: FACS, blocking of biotinylated hSEMA4D ECD-His binding to 293F hPlexin B1 cells; Ab 0.534 nM

| MFI [1] | OD450 nm [2] | MFI [3] | MFI [4] | MFI [5] | MFI [6] | MFI (residual ligand binding) [7] | MFI [8] | MFI [9] | MFI [10] | MFI [11] | MFI [12] | MFI [13] | MFI [14] | MFI (residual ligand binding) [15] | Substance |
| --- | --- | --- | --- | --- | --- | --- | --- | --- | --- | --- | --- | --- | --- | --- | --- |
| 32.1 | 0.0748 | 86.7 | 35.9 | 31.6 | 31.6 | 359 | 35.8 | 24.1 | 23.7 | 38.2 | 23.7 | 24.1 | 37.4 | 341 | Human IgG control (antibody) |
| 24.9 |  | 65.6 | 35.6 | 22.9 | 23.1 | 468 | 40.2 | 29.8 | 29.5 | 35.8 | 30.1 | 30.5 | 35.5 | 472 | Mouse IgG control (antibody) |
